Data on one molecule can be found in US20180230200A1 (CITY OF HOPE, published 2018).

The target in experiment [1] is T1, gH/gL/UL128/UL130/UL131A pentamer complex expressed from MVA-PC in BHK-21 cells (human cytomegalovirus, UniProt P12824 24-743; P16832 31-278; P16837 28-171; P16772 1-214; F5HET4 19-129).
T1 construct: whole, on cells
Briefly: FC competition, MVA-PC BHK-21; unlabelled row Ab; competitor: biotinylated 62-11. Also: test concentration or dose not given here.

The target in experiment [2] is T1, gH/gL/UL128/UL130/UL131A pentamer …. Briefly: FC competition, MVA-PC BHK-21; unlabelled row Ab; competitor: biotinylated AP86. Also: test concentration or dose not given here.
For experiment [3] the target is unchanged. The experiment is described as follows: FC competition, MVA-PC BHK-21; unlabelled row Ab; competitor: biotinylated 2-80. Also: test concentration or dose not given here.
Experiment [4] shares this target. Briefly: FC competition, MVA-PC BHK-21; unlabelled row Ab; competitor: biotinylated 54E11.
Experiment [5] has the same target. The experiment is described as follows: FC competition, MVA-PC BHK-21; unlabelled row Ab; competitor: biotinylated 21E9. Also: test concentration or dose not given here.

B1: 18F10 (antibody, V domains shown)
VH: QVTLKESGPGILQPSQTLSLTCSFSGFSLSTYGIGIGWIRQPSGKGLEWLAHIWWNDNKNYNTALKSRLTISKDPSNNQVFLKIASVDTADTATYFCARTGYFDVWGAGTTVTVSS
VL: DVVLTQTPLSLPVSLGDQVSISCSSSQSLVHSNGNTYIHWYLQKPGQSPKLLIYTVSNRFSGVPDRFSGSGSGTDFTLKISRVEAEDLGLYFCSQSTHVPYTFGGGTKLEIK
notes: also called NAb 18F10
For B1, the “Binding Inhibition (%)” value in experiment [1] came to 0%; in experiment [2] it was 100%; in experiment [3], 0%; in experiment [4] it was 0%; in experiment [5], 0%.
